Measured values published in patent publication US20150299296A1 (Chugai, published 2015).

What was measured:
Assay in all cases: SPR
[1] = target: T1, human FcγRIIa type H extracellular domain with C-terminal His tag (human, UniProt P12318 34-217)
T1 construct: extracellular domain; also called FcgRIIaH; FcγRIIa H
T1 sequence (looked up): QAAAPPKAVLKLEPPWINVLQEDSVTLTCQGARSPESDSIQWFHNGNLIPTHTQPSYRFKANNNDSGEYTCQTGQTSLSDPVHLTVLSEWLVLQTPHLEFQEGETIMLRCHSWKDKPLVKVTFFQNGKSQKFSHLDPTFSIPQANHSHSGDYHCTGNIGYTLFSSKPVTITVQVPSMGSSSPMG

[2] = target: T2, human FcγRIIIa type V extracellular domain with C-terminal His tag (human, UniProt P08637 17-208)
T2 construct: extracellular domain; also called FcgRIIIaV; FcγRIIIaV

[3] = target: T3, human FcγRIa extracellular domain with C-terminal His tag (human, UniProt P12314 16-292)
T3 construct: Whole entry named; also called FcgRIa; FcgIa

Measured: binding result

T3 sequence (P12314 16-292): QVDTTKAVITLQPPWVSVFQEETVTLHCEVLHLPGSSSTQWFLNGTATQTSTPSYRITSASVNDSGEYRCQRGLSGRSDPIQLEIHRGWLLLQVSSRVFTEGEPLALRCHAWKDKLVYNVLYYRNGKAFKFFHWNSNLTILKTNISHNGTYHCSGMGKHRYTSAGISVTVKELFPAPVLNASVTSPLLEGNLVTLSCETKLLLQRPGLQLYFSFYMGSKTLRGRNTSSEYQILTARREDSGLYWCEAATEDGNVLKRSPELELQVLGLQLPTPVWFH
T2 sequence (P08637 17-208 F176V): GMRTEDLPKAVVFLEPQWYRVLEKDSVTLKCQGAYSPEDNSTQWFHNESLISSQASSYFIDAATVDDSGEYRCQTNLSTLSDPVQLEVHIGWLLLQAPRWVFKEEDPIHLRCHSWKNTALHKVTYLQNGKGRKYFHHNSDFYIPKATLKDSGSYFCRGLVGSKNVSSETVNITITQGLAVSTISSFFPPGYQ

B1: IL6R-BP253/IL6R-L (antibody, human IgG1, kappa)
heavy: QVQLQESGPGLVKPSETLSLTCAVSGHSISHDHAWSWVRQPPGEGLEWIGFISYSGITNYNPSLQGRVTISRDNSKNTLYLQMNSLRAEDTAVYYCARSLARTTAMDYWGEGTLVTVSSASTKGPSVFPLAPSSKSTSGGTAALGCLVKDYFPEPVTVSWNSGALTSGVHTFPAVLQSSGLYSLSSVVTVPSSSLGTQTYICNVNHKPSNTKVDKKVEPKSCDKTHTCPPCPAPELLGGPSVFLFPPKPKDTLMISRTPEVTCVVVDVEHEDPEVKFNWYVDGVEVHNAKTKPREEQYNSTYRVVSVLTVLHQDWLNGKEYKCKVSNKAFPAPIEKTISKAKGQPREPQVYTLPPSRDELTKNQVSLTCLVKGFYPSDIAVEWESNGQPENNYKTTPPVLDSDGSFFLYSKLTVDKSRWQQGNVFSCSVMHEALHNHYTQESLSLSP
light: not shown
notes: IL6R-B3 with S267E and L328F; also called IL6R-BP253/ILR-L
binds: all assays above
